Positions count from the first letter of the chain named.
T1: human recombinant (r)BCMA_Fc-AF647 (human, UniProt Q02223 1-54, AF647 fluorescent label (site not stated))
T1 construct: Staining reagent for CAR detection by flow cytometry; not shown: Fc part
T1 sequence (looked up): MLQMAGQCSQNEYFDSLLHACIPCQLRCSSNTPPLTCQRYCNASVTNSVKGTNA

B1: Hy52 BCMA CAR (other)
chain: EVQLVESGGGLVKPGGSLRLSCAASGFTFSSFRMNWVRQAPGKGLEWVSSISSSSSYIYYADSVKGRFTISRDNAKNSLYLQMNSLRAEDTAVYYCARWLSYYGMDVWGQGTTVTVSSGGGGSGGGGSGGGGSGGGGSDIVMTQTPLSLPVTPGEPASISCRSSQSLLDSDDGNTYLDWYLQKPGQSPQLLIYTLSFRASGVPDRFSGSGSGTDFTLKIRRVEAEDVGVYYCMQRIGFPITFGQGTRLEIKTTTPAPRPPTPAPTIASQPLSLRPEACRPAAGGAVHTRGLDFACDIYIWAPLAGTCGVLLLSLVITLYCKRGRKKLLYIFKQPFMRPVQTTQEEDGCSCRFPEEEEGGCELRVKFSRSADAPAYQQGQNQLYNELNLGRREEYDVLDKRRGRDPEMGGKPRRKNPQEGLYNELQKDKMAEAYSEIGMKGERRRGKGHDGLYQGLSTATKDTYDALHMQALPPR
notes: Chimeric antigen receptor expressed on JNL cells or primary human T cells after lentiviral transduction
B2: B61-02 BCMA CAR (other)
chain: QVQLVESGGGVVQPGRSLRLSCAASGFTFSSYGMHWVRQAPGKGLEWVAVISYKGSNKYYADSVKGRFTISRDNSKNTLYLQMNSLRAEDTAVYYCGGSGYALHDDYYGLDVWGQGTLVTVSSGGGGSGGGGSGGGGSGGGGSQSALTQPASVSGSPGQSITISCTGTSSDVGGYNYVSWYQQHPGKAPKLMIYEVSNRLRGVSNRFSGSKSGNTASLTISGLQAEDEADYYCSSYTSSSALYVFGSGTKVTVLTTTPAPRPPTPAPTIASQPLSLRPEACRPAAGGAVHTRGLDFACDIYIWAPLAGTCGVLLLSLVITLYCKRGRKKLLYIFKQPFMRPVQTTQEEDGCSCRFPEEEEGGCELRVKFSRSADAPAYQQGQNQLYNELNLGRREEYDVLDKRRGRDPEMGGKPRRKNPQEGLYNELQKDKMAEAYSEIGMKGERRRGKGHDGLYQGLSTATKDTYDALHMQALPPR
notes: as for B1
B3: B61-10 BCMA CAR (other)
chain: B2 chain with A241T
notes: as for B1
B4: Hy03 BCMA CAR (other)
chain: EVQLVESGGGLVQPGGSLRLSCAASGFTFSGFWMSWVRQAPGKGLEWVANIKQDGSEKYYVDSVRGRFTISRDNAKNSLYLQMNSLRAEDTAVYYCARALDYYGMDVWGQGTTVTVSSGGGGSGGGGSGGGGSGGGGSDIVMTQTPLSLPVTPGEPASISCRSSQSLLDSDDGNTYLDWYLQKPGQSPRLLIYTLSYRASGVPDRFSGSGSGTDFTLKISRVEAEDVGLYYCTQRLEFPSITFGQGTRLEIKTTTPAPRPPTPAPTIASQPLSLRPEACRPAAGGAVHTRGLDFACDIYIWAPLAGTCGVLLLSLVITLYCKRGRKKLLYIFKQPFMRPVQTTQEEDGCSCRFPEEEEGGCELRVKFSRSADAPAYQQGQNQLYNELNLGRREEYDVLDKRRGRDPEMGGKPRRKNPQEGLYNELQKDKMAEAYSEIGMKGERRRGKGHDGLYQGLSTATKDTYDALHMQALPPR
notes: as for B1
B5: PI61 BCMA CAR (other)
chain: QVQLQESGGGVVQPGRSLRLSCAASGFTFSSYGMHWVRQAPGKGLEWVAVISYDGSNKYYADSVKGRFTISRDNSKNTLYLQMNSLRAEDTAVYYCGGSGYALHDDYYGLDVWGQGTLVTVSSGGGGSGGGGSGGGGSQSALTQPASVSGSPGQSITISCTGTSSDVGGYNYVSWYQQHPGKAPKLMIYDVSNRPSGVSNRFSGSKSGNTASLTISGLQAEDEADYYCSSYTSSSTLYVFGSGTKVTVLTTTPAPRPPTPAPTIASQPLSLRPEACRPAAGGAVHTRGLDFACDIYIWAPLAGTCGVLLLSLVITLYCKRGRKKLLYIFKQPFMRPVQTTQEEDGCSCRFPEEEEGGCELRVKFSRSADAPAYQQGQNQLYNELNLGRREEYDVLDKRRGRDPEMGGKPRRKNPQEGLYNELQKDKMAEAYSEIGMKGERRRGKGHDGLYQGLSTATKDTYDALHMQALPPR
notes: Chimeric antigen receptor expressed on JNL cells or primary human T cells after lentiviral transduction; also called P161

Molecular target: T1, human recombinant (r)BCMA_Fc-AF647
Assay: flow cytometry, rBCMA_Fc-AF647 staining of CAR-transduced primary human T cells
Text: The following 8 CARs were chosen for analysis of CAR expression, stability and efficacy in primary T cells: R1B6, R1F2, RIGS, PI61, B61-10, B61-02, Hy03, and Hy52. BCMA CAR T cells were generated by starting with blood from healthy apheresed donors whose T cells (CD4+ and CD8+ lymphocytes) were obtained by negative selection for CD3+ T cells. These cells were activated by the addition of CD3/CD28 beads (Dynabeads® Human T-Expander CD3/CD28, Thermo Fisher Scientific) at a ratio of 1:3 (T cell to bead) in T cell medium (RPMI1640, 10% heat-inactivated fetal calf serum (FCS), 2 mM L-glutamine, 1× Penicillin/Streptomycin, 100 μM non-essential amino acids, 1 mM Sodium Pyruvate, 10 mM Hepes, and 55 μM 2-mercaptoethanol). T cells were cultured at 0.5×10⁶ T cells in 1 mL medium per well of a 24-well plate at 37° C., 5% CO₂. After 24 hours, when T cells were blasting, T cells were transduced with BCMA CAR virus at a multiplicity of infection (MOI) of 5. T cells began to divide in a logarithmic growth pattern, which was monitored by measuring the cell counts per mL, and T cells were diluted in fresh medium every two days and de-beaded and harvested for further analyses at day 9. Aliquots of T cells were stained to measure CAR expression by flow cytometry at day 5 and 9 on a FACS Fortessa (BD). All BCMA CAR T cells were produced under research grade (i.e., not clinical grade) manufacturing conditions.
The BCMA-CAR surface expression and its stability was assessed by measuring CAR % and MFI (mean fluorescence intensity) at day 5 and day 9 using flow cytometry analyses of rBCMA_Fc-AF647 stained cells (FIG. 2 and Table 17).

Row | Binder | CAR % on T cells, Day 5 [%] | CAR % on T cells, Day 9 [%] | CAR MFI on T cells, Day 5 [MFI] | CAR MFI on T cells, Day 9 [MFI]
1 | B1 | 35.1 | 36.1 | 33700 | 2860
2 | B2 | 33.5 | 23.6 | 29100 | 3470
3 | B3 | 41.1 | 30.3 | 27300 | 3290
4 | B4 | 33.7 | 18.1 | 9460 | 929
5 | B5 | 47.4 | 42.3 | 24400 | 2100
